Experimental data as given in the DeepSol protein solubility set.

Assay: soluble on expression in E. coli; label from the status in PepcDB or PDB records

Sequence	soluble on expression in E. coli
MNAVHFGAGNIGRGFIGEILAKNGFHITFVDVNETIIQALKERKSYTIELADASHQQINVENVTGLNNMTEPEKVVEAIAEADLVTTAIGPNILPRIAELIAQGIDARAEANCQKPLDIIACENMIGGSTFLAEEVAKYLKNPAYAEQWIGFPDAAVDRIVPLQKHEDPLFVQVEPFCEWVIDDTNRKAKEIQLEGVHYVAD	not soluble
MGSDKIHHHHHHMNIAILNHYASIPEVGSAETRHFELAKRFVREGHRVDIYIGDFSHLTGKRWSETFGWSFSKDGVDFIVVETREYTGNSLSRLLSSIDYYRNGRKKIIQKRYDVIIASSPHPFSWSLGWYYVRRKGGKFFIEIRDVWPDDLVKLGSLSYRHPVSKLFDHMCKKYYPKADGFISLVPDLSEHFNRLKVRPENFIYIPNGVDLKVFKDPEPCPVVDEVFSKVPDGKIKVVYAGSIVEHKGIKEFIETLSKVNKNLRDRFVFFFVGPSHADYLVSVKETAKDLQNVFFFDPVPKRCVPYLLQKADVLLFTLSQTVMDHPAVSSYKVVDYMASGKPVLCVDIENLPFKKTKGAVFFREDNLEEALRRIFEEDLSELGRRNREYVERERDWDRLYEKLRSFVLS	not soluble
MGSDKIHHHHHHCKDNDDATGDFDPNKPVVISEFSPKEGGLGTRMLLYGENFGSDISKIKVTIGGQDSKVVGAKGKSLYCVVPAKAYDGDIKLSILNDEGEEIANTEANEKFVYQKKMLVTTFLGTMYDGNTKYDLKDGPFDDCGGFGGAVWLSFDPKNHNHLYLVGEQHPTRLIDFEKEYVSTVYSGLSKVRTICWTHEADSMIITNDQNNNDRPNNYILTRESGFKVITELTKGQNCNGAETHPINGELYFNSWNAGQVFRYDFTTQETTPLFTIQDSGWEFHIQFHPSGNYAYIVVVNQHYILRSDYDWKTKRLTTPYIVCGQQGAKDWVDGVGKKARMHAPRQGTFVKNPAYKGSSDEYDFYFCDRENHCIRILTPQGRVTTFAGRGSNGTSGYNDGDLRQEARFNHPEGIVYDEERECFFIGDRENRRIRKIGYEE	not soluble
MSAAHKNLLAVWAKEPKDLVAVEKALNELTKVLSASSDLNDKQSALASKDLYEISVLLAILKHDFETFDDYINQMHTYYTMAPENSENKHLMTGLHLMFLLAANRLSDFHMLLEQIPQKEQTSNAYISTPVRIEQSLMEGAYNKVVLTEKNIPSPFYTIFIRIMLDTIRREIATSIEKSFKVLTAKDATVMLLFDNDEQMKKFGQERKWHLDGERYVFEIEVAQEKPVNLDTVRVATQTLFYAKQLEQIV	not soluble
GPGSMVVKDISLADWGRKELDIAETEMPGLMAAREEFGKSQPLKGARISGSLHMTIQTAVLIETLKVLGAEVRWASCNIFSTQDHAAAAIAATGTPVFAVKGETLEEYWTYTDQIFQWPDGEPSNMILDDGGDATMYILIGARAEAGEDVLSNPQSEEEEVLFAQIKKRMAATPGFFTKQRAAIKGVTEETTTGVNRLYQLQKKGLLPFPAINVNDSVTKSKFDNKYGCKESLVDGIRRGTDVMMAGKVAVVCGYGDVGKGSAQSLAGAGARVKVTEVDPICALQAAMDGFEVVTLDDAASTADIVVTTTGNKDVITIDHMRKMKDMCIVGNIGHFDNEIQVAALRNLKWTNVKPQVDLIEFPDGKRLILLSEGRLLNLGNATGHPSFVMSASFTNQVLGQIELFTRTDAYKNEVYVLPKHLDEKVARLHLDKLGAKLTVLSEEQAAYIGVTPQGPFKSEHYRY	soluble
ASCETTVTSGDTMTYSTRSISVPASCAEFTVNFEHKGHMPKTGMGHNWVLAKSADVGDVAKEGAHAGADNNFVTPGDKRVIAFTPIIGGGEKTSVKFKVSALSKDEAYTYFCSYPGHFSMMRGTLKLEE	soluble
MNPLHLETLLAIIDEGSFEDAAFALGISPSAVSQRIKALERETGRVVVRRTSPVTATDAGEVLVQSARRMALLQAETNAQLRGRIERIPLSVAVNADSLATWFRRVMASVAEMDNATLHMRIEDESHSLSLLRRGDVLGAVTGEKTPVSGCDSIALGAFRYFAVASPKLLDRYTIDGAVDWERMPVLRFGPRDGLQDRDIKRRLGEVPAGRRVNEIPSSEAFMEAARVGLGWAMLPDIQALPLLDSGEVVMLDSEVHEVPLYWQRWRLESPALERLTQAVVDAALEGLHPLSA	not soluble
MGSDKIHHHHHHMDNYLAEQILKNLPFTPTQSQDSAIRSLAKYLFDREPYSVFLLRGYAGTGKTQLIASVVQTILEQGADCELLAPTGRAAKVLTTYTRHQAYTIHRQIYQATAAGIEEGGAYRIRRSSGRSTVFIVDESSMIGNESVEPTPFGSGSLLNDLLAYVNETDGCRLILAGDMAQLPPVGSVVSPALDAGVMETSYGLRIHECTLTEVVRQQKESAILSLATSLRRLLSNGISEKIKLNIRDSGDVSAISGTELIEALDASFRTVGMDETIIVSYSNKRALAYNLGIRSQVLYYEEELIRGDRLVVTRNNYRYCDRRDKTDFVANGEIVEILRLGKRYELYGFRFADATISLVEQGREIEARLLLDGLTAETAGLTHAQRQKLYDAVAEDYNSMASIPARRKAIKEDAFFSALEVKYAYAITCHKAQGGQWKHVYVDMGMLSYLPHDEQLCRWLYTAVTRASERLFLVNTPKDMLP	not soluble
MTENFFGKTLAARPVEAIPGMLEFDIPVHGDNRGWFKENFQKEKMLPLGFPESFFAEGKLQNNVSFSRKNVLRGLHAEPWDKYISVADGGKVLGTWVDLREGETFGNTYQTVIDASKSIFVPRGVANGFQVLSDFVAYSYLVNDYWALELKPKYAFVNYADPSLDIKWENLEEAEVSEADENHPFLKDVKPLRKEDL	soluble
MGSDKIHHHHHHMEMVMKNKRVAIIGAGPSGIAQLRAFESAEKQGHEIPELVCFEKQDTWGGQWNYSWRTGTDSYGEPVHSSMYRNLWSNGPKEVLEFAEYSFDEHFGKPISSYPPREVLWDYIAGRAKKSNVEKYIKFAHVVRWVSFDEATKLFTVTVENLRTGETSSDTYDNVIVGAGHFSFPNVPHFDGVETFPGQIMHAHEFRGAEAVADKDILLIGASYSAEDIGTQAYKMGARSVTFSYRSNPMGYEWPEEMTELPLVERFDGSEVHFVNGEKRKVDIVVFCTGYLHHYPFMPSELTLSSPNNLYPDTLYRGVVSEANNQLFWLGAQDQWLTFNMFDAQAWYVRDVILGRVALPSKEAQRNHMDKWLSRFEGLKSENDQIDFQCDYVEDLIDQTDYPSFDLKEVANILKGWVKSKEEDILNYRDYTYTSVMTGTTSVEHHTPWMIELDDSLERYLSEPQEDEARQVYRGKKVRDKA	not soluble
MRLRHLSDPDSLPALDKSFAIERPALGLAPDAPPVRILLLYGSLRARSFSRLAVEEAARLLQFFGAETRIFDPSDLPLPDQVQSDDHPAVKELRALSEWSEGQVWCSPERHGQITSVMKAQIDHLPLEMAGIRPTQGRTLAVMQVSGGSQSFNAVNTLRLLGRWMRMFTIPNQSSIAKAFQEFDAAGRMKPSPYYDRIADVMEELVRFTALVRPHREALTDRYSERKAAGHVIDEATDLSSIAIAPQPLPESETS	soluble
MAHHHHHHMGTLEAQTQGPGSMNAGLDQVDPIWHSIRAEAEEATRNDPVLGAFLYATILNQPSLEEAVMHRIAERLGHPDVSADILRQTFDTMLEANPEWSHVLRVDIQAVYDRDPAYSRFMDPVLYLKGFHAIQTHRLAHWLYKQGRKDFAYYLQSRSSSIFQTDIHPAARLGSGLFLDHATGLVVGETAVVEDNVSILHGVTLGGTGKSSGDRHPKIRQGVLIGAGAKILGNIQVGQCSKIAAGSVVLKSVPHNVTVAGVPARIIGETGCTEPSRVMDQMLGDGI	soluble
MFGGDVSAASVLPSHPISGSCDGFQAEGSDHHHSTMTPFQESQRNVYQILYGHPANDDFPRPITPLQITIPEGDASPTVPVSCGVVNGKMHLNLFMCPGIHQPCIEVGNDLLSPKQFTIRGDKERQKDWKASIRVGRSSLRTHMEAMTIDFYEHMNRCSGKCQSRNYVNAPSEEVLQARKSKRTSEAGQLKYEIENEMAGKEADNDDNRKSAKKARGRPRGSVNKPRQMVKMEPQDDRFFEEFFIDAPPLQSMSSNEEPTSSNKESNECTPFNDILNCLQNDPMNFWSQMQQTGVIGHFCDDIIVSAINLKQSVMDNPVTPTTANMLTRTAFALGIPPVVVHRVQSIERNAYQQRKHDEMFNDIQSTLAEEHSVKYQPRTSSSSQESLHTAREFTEEKVEELIDVCKYDDYPESECLPGPSHIQ	not soluble
